Reference: a protein production outcome set (Wang et al. 2014)

Assay: label from the status in PepcDB records

In the case of “MDDNTKELEQYWDEFSQEYEEIQNESLVDIGQQLKEFLLAEKLLPTSQFLDLAGGTGKYIPHFSNFTDSYHLVDLSAKMLEFAKNKSADSNKITFTHQEQNKFLKNTKENTYDFVFSAMNPALESKEALVELNRIANGNVGILRLIFDEDNLFSQVEQLYLPNQEQNKEAQMLLYKVWLEELGWEFKSKKFRFFLSEKVSSQFFSDYFSDELSNAELAALTQLFFSETEIREMERLVIFELLYWEKC”, the protein production is reported as “failed”.
In the case of “GSHMDKTFCVVVQNRIKEGYRRAGFSFHLGDNSLAAVSESQLAQLKADPRLVVQITETGSQEGGEGLSKEPAGSDEQKQLRADPPSTDLNTFTVEQLKAQLTERGITFKQSATKAELIALFAPADGEKSEA”, the protein production is reported as “not failed”.
For “MPDGDFITLDRVEKVFDVRRKTGFLRSERRRVRAVDSLSFTVARGEMVGYIGPNGAGKSTTIKMLTGILTPSGGRLRVAGIDPSRERTRLAARIGVVFGQRTTLWWDLPLIDSYRLMHRMYRIPDGRYRENLDRCVELLELGDLLDVPVRQLSLGQRMRGDIAAALLHDPEVLYLDEPTIGLDVISKARVREFLRELNAERGTTVLLTTHDLQDIEQLCGRVMVIDHGRLMYDGPLAGLHEVGDSERTLVVDLARELPPIEAAPARVVKVEGPRQWLAFPASESAAPLVARIAAAYPLVDLSVREPDIEAVIAKMLQSMGDTPQPPPEQAEHVVSLEHHHHHH”, the protein production was “not failed”.
For “MFMAKRYENMDNVSTKKSIRSFLRWRKERKQNKKDFSFLVEQSPVKQSAFLQSNVEKTTITWIGHSTFLIQTNGLNILTDPVWANKLKLVPRLTEPGLSIEALPKIDIVLISHGHYDHLDFSTLRQLNDDVLYLVPIGLKKLFTRKKFKHVEEYKWWESTIINEVSFHFVPSQHWTRRFLFDMNTSHWGGWIIDNETTMETIYFCGDSGYFQGFKEIGERFLIDIALMPIGAYEPEWFMKVSHVSPEEAVQAYLDLNATHFIPMHYGAFALADETPREAITRLRNNWNLRMLPWEQLHVLFLGQTFIYSNATNNKQIKEKIETLHV”, the protein production was “failed”.
For “MDNEEYYKILGVAKSASQDEIKHAYRKMSKKYHPDLNHQPGAEDKYKQVQEAYETLGDPQKRAAYDQYGKAGANANNGQGGFGGFQQSGFNFNGQDFGDFSDIFSQMFGGSFNPNAPRKGRDLQYRINLTFEEAVFGKETEIKYVRQESGGNSKEHTVKVTIPAGVETGQQMRLAGQGEAGTHGGPYGDLYVEFIVGKSKDGFERQGANIYLEEPINFVQAALGDKIKVKTVHGDVELTIPAGTQTDTEFRLRGKGAPYVNSSRIGDEYVKVIVQVPKRLNEKEKKALKTYADLRGENVNPQKRRGLFG”, the protein production was “failed”.
With “MSPMTIPSEMKALLLVGDGYTKTPSGSALEAMEPYLEQGRIAVPAPGPSQVLIKVNLASINPSDVAFIKGQYGQPRVKGRPAGFEGVGTIVAGGDEPYAKSLVGKRVAFATGLSNWGSWAEYAVAEAAACIPLLDTVRDEDGAAMIVNPLTAIAMFDIVKQEGEKAFVMTAGASQLCKLIIGLAKEEGFRPIVTVRRDEQIALLKDIGAAHVLNEKAPDFEATLREVMKAEQPRIFLDAVTGPLASAIFNAMPKRARWIIYGRLDPDATVIREPGQLIFQHKHIEGFWLSEWMRQFKERRGPAILEAQKRFSDGRWSTDVTAVVPLAEAIAWVPAELTKPNGKVFIRP” the protein production was “not failed”.
For “MPESYWEKVSGKNIPSSLDLYPIIHNYLQEDDEILDIGCGSGKISLELASKGYSVTGIDINSEAIRLAETAARSPGLNQKTGGKAEFKVENASSLSFHDSSFDFAVMQAFLTSVPDPKERSRIIKEVFRVLKPGAYLYLVEFGQNWHLKLYRKRYLHDFPITKEEGSFLARDPETGETEFIAHHFTEKELVFLLTDCRFEIDYFRVKELETRTGNKILGFVIIAQKLLEHHHHHH”, the protein production was “not failed”.
In the case of “MESFSSKSLALQAEKKLLSKMAGRSVAHLFIDETSSEVLDELYRVSKEYTHSRPQAQRVIKDLIKVAIKVAVLHRNGSFGPSELALATRFRQKLRQGAMTALSFGEVDFTFEAAVLAGLLTECRDVLLELVEHHLTPKSHGRIRHVFDHFSDPGLLTALYGPDFTQHLGKICDGLRKLLDEGKL”, the protein production is reported as “failed”.
In the case of “MYNTVVYSIVVPLYNEELVIDENYMRLKKIMDSLKENYEIMYVNDGSKDSTMNKVEKICEKDKRIKLVNFSRNFGHQCAISAGMELSAGDAIIVIDADLQDPPEVIPQMIDKWKDGYDVVYGKRLKRKGESFLKKFTAKIFYRLLRSITNIDIPVDTGDFRLIDRKVCDTLSSLPERNRYVRGLVSWVGFKQTFVEFTRQERFAGASKYPLKKMLKLAFDGITSFSYKPLVASTYLGGLMFLLGLLAFIYVTAKNLYSHKTILTLGLILAINLCMFGLIFIILGILGQYIGRISDESKARPNYIIASTINYKENIKEVEPSEVKLN”, the protein production is reported as “failed”.
With “RPSWGYARSMAGRLAGATAVLDVQTGGGEVLDFALEAAGPHRAPLVAATEGWAPNVAQATRLLRPRGVPVVASADDAPLPFADGAFDLVVSRHPVEPHWDEVARVLMPGGTYFAQHVGPASVFELIEYFLGPLPEDSRRHRDPERERADAEAAGLEVVELRAERLRMEFLDIGAVVHFLRKVVWMVPGFTVEAYRDRLRDLHERIEADGPFVAHSSRHLFDVRKP” the protein production was “failed”.
In the case of “MMKMDLKKEVKEEFIRFQRNEKTESIVYERLASIEKDESNRKVLRLISAEEKAHYATLKKYTETDVAPDKLRIAKYYWLARILGITFAIKLMESSEENAHHDYAKYTDYPDLRQLANEEEVHEQKLIGLINEERLEYMGSVVLGLNDALVEFTGALAGFTLALSDSRLIALTGSITGIAAALSMASSEYLSTKSEGGETKHPIKAAIYTGIAYIITVVALVAPFILIENVLIALGVMLAMALVIIALFNYYYSVARGESFRKRFTEMAVLSFSVAGISFLIGYALKTFTGIDA”, the protein production is reported as “failed”.
With “MYALIHHGRRLVQLQKLSNFRVSVQNGSALSNSFSFASVADATLIDSLKGNNFTVSYLVDSLGLTTKLAESISKKVSFEERRNPDSVLSLLTSYGFTKSQISSIITIYPRLLALDAEKSIAPKLQSLQSRGASSSELTQIVSTVPKILGKRGHKSITVYYDFVKDIIEADKSSSYEKLCHSFPQGNKKNKIRNISVLRELGVAQRLLFPLLISDGQPVCGKERFEESLKKVVEMGFDPETTKFVEALRVIYRMSDKTIEEKVNVYKRLGFGVADVWAIFKKWPSFLSYSEKKITHTFETLKSCGLLKHEVLLLLKKHPKCICSSEQKIVNSIETFLGLGFSRDEFAMMVKRYPQCIDYTAETVKKKTEFIVKNMNWPLEALVSIPQVFGYSLEKRTVPRCNVIKTLISKGLMKDGSEAPPMSSVLTSTDQAFLRRYVMKHDKLAPELMAIFTGENGK” the protein production was “failed”.
For “MVNLGAMLFRGRGVKLSQQFAVIGLGRFGRGVCETLHGMGYEVLGSDNQERLVNQVLQDHIVDHAIQLDATDPQALKEAGIFEFETVIVAIGNHLDASIITTLNLKEAGVPKVIAKASSEVHKKLLERVGADRVVFPEYEAGCELARSLTRPAILDCLNLDPQKSIVEVKVPEAFHGRTVAEVELRSRYGLNLIALRFDDKFEINPSPSQKLHQGDIMVVIGDNNDIERFLRSQHVH”, the protein production was “failed”.
In the case of “MSMKRSREESQGGGNHNRFVDEGPRLNLPLTKTPELINKIESYLKVHYTCPHQQTENSSKTSTLPKSPEKLKAMNFPISTIKIGDCVFVAKNPDDIVAKFYFAKKKLLWEFLFGEPVANMPRLKSKIEIQWNDVSSFEESINSRDETGILKIELKKRPTFFTETNPQAGKHTQWKQLDYDFTGDQASYYRRHTLHFPPGVLQKNLEKLLTDSFWSKLYKVPFPVHESLYFDIGFENNNSSNGHSKTVGFNVNNGLQHDFSQVRDLKERKKIITLIGIGGVGEGEGNFSMANGGWQRNSYSHVNSLNYNTDNGLLGMQAIPPSSQVANEHYNNTQNDYTGSQFGYRMNQDEIQKMQRIGKILESQAYAVPDTQTKLTSSGMNNGPMYPPAGSYLESRLLEEWYEHTRRFQQ”, the protein production is reported as “not failed”.
With “MKIAVLGTGTVGRTMAGALADLGHEVTIGTRDPKATLARAEPDAMGAPPFSQWLPEHPHVHLAAFADVAAGAELVVNATEGASSIAALTAAGAENLAGKILVDIANPLDFSHGMPPTLNPVNTDSLGEQIQRTFPEAKVVKTLNTMNASLMVDPGRAAGGDHSVFVSGNDAAAKAEVATLLKSLGHQDVIDLGDITTARGAEMLLPVWIRLWGALGTANFNFKIAR” the protein production was “not failed”.
In the case of “MSQPPLLSGPGGRLLGAALLIGLLAGCGSVSTGNAGSGTVGTSTTSRADVMTFQPSSLPVSYVGETYNVQVGVTGGVGPYGYRLTAGTLPPGLKFAGGALSGTPTKAGSYSFAIQATDANLSTRVQEYTMNVDALPPLALKPTLPPGEIRGETRIPVTIQAPRAVRAARLSWDLGKDVQVTRVQPADAGSVVFWQQRGSVLTVDLGFRTVPRPDARIALITVKPAKAVTLKADALGYEARDGSGKMLVDKKRPGSEPVKPAEQPGDPKVDPKAADQKATDQKATDPKTVDPKTVTPADTVEGGPLPSPALPTPSLPPTLPPVTTPPANTPPVPTPTPPANQPAPAPAPQPAPAPQPTPPSGTGGALEHHHHHH”, the protein production is reported as “not failed”.
For “MRKLTFLLTFFMLLGSVQLQAKEYAIKDIPMVHLQNRTRYVSNPDGILSSTAVTTMDSILYALEQKTGIQTLVVAVTGIEGGDCFDFAHRLGQETGVGQKERDNGLVILLSTDERCVQFATGYGLEGILPDAICKRIQNRYMLPYFKDNNWNAGMVAGIRAVNGYLDGSMENIGNDESEDDPLEFIIIFFVIFGGFIGIGLYANWRKTRCPHCKKHKLQRLSSKVIDRSNGTKTEEVVYKCRNCGHILRRKERSRDENYKGPRGGGPFIGGMGGGFFGGHGGSGGGFSGGSFGGGSFGGGGAGSRF”, the protein production was “failed”.
In the case of “MNDTSNPYATPASALQPTQAVPPVIGDYDFRIGDVISEAWAKIKGVKGILIGAFVVYSVVIQTITFILTLLFGGIGLMSEADPIAFAVGQMIASLVATAVGYPFFTGLTMIGIRRAADQPATFNEMFNYFGMLVPLLLTGLLMMLMVYVGFFLLIIPGLYLSVAYMLALPLVAERGLTPWQALETSRKAISRHWFKVFGLLLVLSLLMLVSMIPLFIGLIWTGPLFVVSMGILYRTIFGVRPLGN”, the protein production is reported as “failed”.
In the case of “MEPDMTQAFDDDTLRFYRGNATAYAERQPRSATLTKFLGELPAGAKILELGCGAGYQAEAMLAAGFDVDATDGSPELAAEASRRLGRPVRTMLFHQLDAIDAYDAVWAHACLLHVPRDELADVLKLIWRALKPGGLFYASYKSGEGEGRDKLARYYNYPSEEWLRARYAEAGTWASVAVESSEGKGFDQELAQFLHVSVRKPELEHHHHHH”, the protein production is reported as “not failed”.
For “MSLAMQDFRPGVYRHYKGDHYLALGLARADETDEVVVVYTRLYARAGLPMSTRLLRIWNETVDTGAGPQPRFAYVGHVTPEQGEGHHHHHH”, the protein production was “not failed”.
For “MTWSHWEITPFITSVFFILGVLTLFWVSQNWIINFFNTHHWRVDQSLITDWYGLIYMMLFVFGMQTAVVGQNDAWIFMNFQLIGLTFCGYFLNVRVRYYYLYPLVFIFMGFNHSLYYWESWGHAVTLILFFTALGRLRKHVPLQTKQGQVTLYLVTCAGFGAVLWWFMKLKFNLSWATYWQEWTYLLVFASLLYIYASMLSANAHLKQNLVAFANHDALTKIENFAAYKTAINYQVTSSRKNGSQLTMLMFDIDHFKQVNDTYGHLAGDKILQHVAQVATIVFHANNPQISLYRTGGEEFNVIFPNYDLTEALAVAEQLFAAINHIAVPVNDHQIQLSISIGLSELAADDQSPTAFYQRVDANLYHSKKHGRMQITAK”, the protein production was “failed”.
With “GIHMGKIKRRAITEHEKRALRHYFFQLQNRSGQQDLIEWFREKFGKDISQPSVSQILSSKYSYLDNTVEKPWDVKRNRPPKYPLLEAALFEWQVQQGDDATLSGETIKRAAAILWHKIPEYQDQPVPNFSNGWLEGFRKRHILH” the protein production was “not failed”.
